From the nanobody polyreactivity screen of Harvey et al. (2022) come the findings set out here.

The nature of this data set: yeast display, Sf9 membrane polyspecificity reagent, FACS + sequencing; frameworks hold sequencing errors. The essentials:
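Genes from sorted yeast were amplified by colony PCR, read by MiSeq 2 × 250 sequencing and filtered on CDR length. These cells carried a synthetic nanobody library in Saccharomyces cerevisiae BJ5465 and were sorted by FACS into low and high (top ~1%) gates on anti-HA and streptavidin fluorescence. Polyreactivity is labelled according to the gate of origin.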
Consider “QVQLVESGGGLVQAGGSLRLSCAASGLTFERYAMGWYRQAPGKERELVAAISIRGGSTYYADSVKGRFTISRDNAKNTVYLQMNSLKPEDTAVYYCNAESFSFYPSWHEYDYWGQGTQVTVSS”, for which the “polyreactivity (PSR sort gate)” value is “low polyreactivity”.

Turning to “QVQLVESGGGLVQAGGSLRLSCAASGLTFEVYAMGWYRQARGKERELVAAISSGGGATYYADSVKGRFTISRDNAKNTVYLQMNSLKPEDTAVYYCAAVDPYERYVYWGQGTQVTVSS”, the “polyreactivity (PSR sort gate)” value is given as “low polyreactivity”.

On to “QVQLVESGGGLVQAGGSLRLSCAASGLTFEYNAMGWYRQAPGKERELVATISNGGITSYADSVKGRFTISRDNAKNTVYLQMNSLKPEDTAVYYCAASYADSPTTDQLWLEYDSWGQGTQVTVSS”, for which the “polyreactivity (PSR sort gate)” value is “low polyreactivity”. “QVQLVESGGGLVQAGGSLRLSCAASGLTFFGNAMGWYRQAPGKERELVATISSGGGTSYADSVKGRFTISRDNAKNTVYLQMNSLKPEDTAVYYCAADIVEEFDYWGQGTQVTVSS”: the “polyreactivity (PSR sort gate)” value is given as “low polyreactivity”.

With “QVQLVESGGGLVQAGGSLRLSCAASGLTFFGYTMGWYRQAPGKEREFVADITWSGGSTYYADSVKGRFTISRDNAKNTVYLQMNSLKPEVTAVYYCAVAPPNWDPFVDDTYLMDYWGQGTQVTLSS”, the “polyreactivity (PSR sort gate)” value was “low polyreactivity”.

“QVQLVESGGGLVQAGGSLRLSCAASGLTFFWNAMGWYRQAPGKERELVAAISYSGGSTSYADSVKGRFTISRDNAKNSVYLQMNSLKPEDTAVYYCAAEYWYGPSKGDYWGQGTQVTVSS”: the “polyreactivity (PSR sort gate)” value is “high polyreactivity”. Under “QVQLVESGGGLVQAGGSLRLSCAASGLTFGANDMGWYRQAPGKERELVAAIDWSGGSTFYADSVKGRFTISRDNAKNTVYLQMNSLKPEDTAVYYCAALGFGYPYPEYDYWGQGTQVTVSS” stands “low polyreactivity”. Regarding “QVQLVESGGGLVQAGGSLRLSCAASGLTFGDYSMGWYRQAPGKERELVAAITWSGASTYYADSVKGRFTISRDNGMNTVYLQMNSLKPEDTAVYYCAAERTPSYRAYDYWGQGTQVTVSS”, the “polyreactivity (PSR sort gate)” value is “low polyreactivity”. Under “QVQLVESGGGLVQAGGSLRLSCAASGLTFGDYVMGWYRQAPGKERELVATITSDGGTTYADSVKGRFTISRDNAKNTVYLQMNSLKPEVTAVYYCYADAVVDNYVGFSAAGFDYWGQGTQVTVSS” stands “low polyreactivity”; under “QVQLVESGGGLVQAGGSLRLSCAASGLTFGFYAMGWYRQAPGKERELVAGISNGGSTNYADSVKGRFTISRDNAKNTVYLQMNSLKPEDTAVYYCAARLYARRLYDYWGQRTQVTVSS”, “low polyreactivity”.

For the sequence “QVQLVESGGGLVQAGGSLRLSCAASGLTFGGNAMGWYRQAPGKERELVAAISWSDDTTDYADSVKGRLTISRDNAKNTVYLQMNSLKPEDTAVYYCAARLPFEHVDYWGQGTQVTVSS”, the “polyreactivity (PSR sort gate)” value is on record as “low polyreactivity”. On to “QVQLVESGGGLVQAGGSLRLSCAASGLTFGHYAMGWYRQAPGKERELVATISSRGVSTRYADSVKGRFTISRDNAKNTVYLQMNSLKPEDTAVYYCNARDYTWGKYYSSKIGYYYWGQGTQVTVSS”, for which the “polyreactivity (PSR sort gate)” value is given as “high polyreactivity”. Turning to “QVQLVESGGGLVQAGGSLRLSCAASGLTFGLNAMGWYRQAPGKERELVAAITWSGGSTYYADSVKGRFTISRDNAKNTVYLQMNSLKPEDTAVYYCATDNWSVNGGYNYWGQGTQVTVSS”, the “polyreactivity (PSR sort gate)” value is “low polyreactivity”.

In the case of “QVQLVESGGGLVQAGGSLRLSCAASGLTFGPYAMGWYRQAPGKERELVAAITSGGYTNYADSVKGRFTISRDNAMNTVYLQMNSLKPEDTAVYFCATSYYLAYRSITPYDYWGQGTQVTVSS”, the “polyreactivity (PSR sort gate)” value is “low polyreactivity”. “QVQLVESGGGLVQAGGSLRLSCAASGLTFGRYAMGWYRPAPGKERELVAAISSGGSTYYADSVKGRFTISRDNAKNTVYLQMNSLKPEDTAVYYCAADYVGWYFVSGRDYWGQGTQVTVSS”: the “polyreactivity (PSR sort gate)” value is given as “low polyreactivity”.

For the sequence “QVQLVESGGGLVQAGGSLRLSCAASGLTFGTNAMGWYIQAPGKERELVAAISTSSGSTYYADSVKGRFTISRDNAKNTVYLQMNSLKPEDTAVYYCAAVTVTKLSYYRYYYWGQGTQVTVSS”, the “polyreactivity (PSR sort gate)” value is on record as “low polyreactivity”.

As for “QVQLVESGGGLVQAGGSLRLSCAASGLTFGYYAMGWYRPAPGKEREFVAAISKSGGGTYYADSVKGRFTISRDNAKNTVYLQMNSLKPEDTAVYYCAARWFVGYNYWGQGTQVTVSS”, the “polyreactivity (PSR sort gate)” value was “high polyreactivity”. As for “QVQLVESGGGLVQAGGSLRLSCAASGLTFHVNAMGWYRQAPGKERELVAGITFSGGSTYYADSVKGRFTISRDNAKNTVYLLMNSLTPEDTAVYYCAADARFYAYYYWGQGTQVSVSS”, the “polyreactivity (PSR sort gate)” value is on record as “low polyreactivity”.

On to “QVQLVESGGGLVQAGGSLRLSCAASGLTFHYYAMGRYRQATGKERELVAVIRGSCTSTYYADSVKGRFTISRDNAKNTVYLQMNSLKPEDTAVYYFAAPYQYRRSGRVLGKYDSRGQGTQVTVSS”, for which the “polyreactivity (PSR sort gate)” value was “high polyreactivity”. As to “QVQLVESGGGLVQAGGSLRLSCAASGLTFIRYAMGWNRQAPGKERELVASISRGGSTYYADSVKGRFTISRDNAKNTVYLQMNSLKPEDTAVYYCAAQHVGHNYYNSGFYYWGQATQVTVSS”, the “polyreactivity (PSR sort gate)” value is “low polyreactivity”. On to “QVQLVESGGGLVQAGGSLRLSCAASGLTFIYKAMAWYRQAPGKERELVAAISGNGGDTYYADSVKGRFTISRDNAKKTVYLQMNSLKPEDTAVYYCAADYAYTPITWDEYWGQGTQVTVSS”, for which the “polyreactivity (PSR sort gate)” value is “low polyreactivity”. Under “QVQLVESGGGLVQAGGSLRLSCAASGLTFIYYSMGWYRQAPGKERELVAAISVSGGSTYYADSVKGRFTISRDNAKNTVYLQMNSLKPEYTAVYYCAGDWFVHKPRYQYSFDYWGQGTQVTVSS” stands “low polyreactivity”; under “QVQLVESGGGLVQAGGSLRLSCAASGLTFKRNAMGWYRPAPGKERELVAAIRYSTDSTNCADSVKGRFTISRDNAKNTVYLQMNSLKPEDTAVYYCAKDKQDYEYWGQGTQVTVSS”, “low polyreactivity”; under “QVQLVESGGGLVQAGGSLRLSCAASGLTFKYYAMGWYRQAPGKERELVAAITSTGGRTYYADSVKGRFTISRDNAKNTVYLQMNSLKPEDTAVYYCAKDTHWAYYWGQGTQVTVSS”, “low polyreactivity”. On to “QVQLVESGGGLVQAGGSLRLSCAASGLTFLDYAMGWYRPAPGKERELVAAITSGGSTNYADSVKGRFTISRDNAKNTVYLQMNSLKPEDTAVYYCATDLEVSAYDYWGQGTQVTVSS”, for which the “polyreactivity (PSR sort gate)” value is reported as “low polyreactivity”.

On to “QVQLVESGGGLVQAGGSLRLSCAASGLTFLNKAMGWYREAPGKERELVAAISRGGSTNYADSVKGRFTISRDNAKNTVYLQMNSLKPQDTAGYYCAAQIFESAYGMDYWGQGTQVTVSS”, for which the “polyreactivity (PSR sort gate)” value is recorded as “low polyreactivity”. With “QVQLVESGGGLVQAGGSLRLSCAASGLTFLVYAMGWYRQAPGKERELVAAITSIGDSTFYADSVKGRFTISRDNAKNTVYLQMNSLKPEDSAVYYCNADGPAGDIKFTLMDYDYWGQGTQVTVSS”, the “polyreactivity (PSR sort gate)” value is “low polyreactivity”. In the case of “QVQLVESGGGLVQAGGSLRLSCAASGLTFLVYAMGWYRQAPGKERELVAAITSIGDSTFYADSVKGRFTISRDNAKNTVYLQMNSLKPEDTAVYYCNADGPAGDIKFTLLDYDYWGQGTQVTVSS”, the “polyreactivity (PSR sort gate)” value was “low polyreactivity”. Consider “QVQLVESGGGLVQAGGSLRLSCAASGLTFLWYAMGWYRQAPGKERELVAAITSGGRTKYADSVKGRFTISRDNAKNTVYLQMNSLKPEDTAVYYCAAYTQWWGYDYWGQGTQVTVSS”, for which the “polyreactivity (PSR sort gate)” value is listed as “high polyreactivity”.

Take “QVQLVESGGGLVQAGGSLRLSCAASGLTFNDYAMGWYRQAPGKERELVAAISDIGGGTYYADSVKGRFTISRDNAKNTVYLQMNSLKPEETAVYYCAAEWQDWYGVDSWGQGTQVTVSS”: the “polyreactivity (PSR sort gate)” value is recorded as “low polyreactivity”. Regarding “QVQLVESGGGLVQAGGSLRLSCAASGLTFNHNAMGWYRQAPGKERELVAAISRRGGSTYYADSVKGRFTISRDNAKNTVYLQMNSLKPEDTAVYYCNAPVKVRATTNWEYDYWGQGTQVTVSS”, the “polyreactivity (PSR sort gate)” value was “high polyreactivity”. For “QVQLVESGGGLVQAGGSLRLSCAASGLTFNRNAMGWYRQAPGKERELVATISGSGASTYYADSVKGRFTISRDYAKNTVYLQMNSLKPEDTAVYDCAARWHYSWGSYGFDYWGQGTQVTVSS”, the “polyreactivity (PSR sort gate)” value is reported as “high polyreactivity”. Next, “QVQLVESGGGLVQAGGSLRLSCAASGLTFNTYAMGWYRQAPGKERELVAAITKGGGRTYYADSVKGRFTISRDNAKNTVYLQMNSLKPEDTAVYYCAAYGYIYRVGYANGVVTSQDDYWGQGTQVTVSS”: “high polyreactivity”; “QVQLVESGGGLVQAGGSLRLSCAASGLTFNVNAMGWYRQAPGKERELVARINTSGGSTSYADSVKGRFTISRDNAKNTVYLQMNSLKPEDTAVYYCAADRARYYSEYDYWGQGTQVTVSS”: “low polyreactivity”; “QVQLVESGGGLVQAGGSLRLSCAASGLTFNVYAMGWYRQAPGKERELVASITKRGGSTYYADSVKGRFTISRDNAKNTVYLQMNSLKPEDTAVYYCAADGLTGSKYRATGYYWGQGTQVTVSS”: “high polyreactivity”. “QVQLVESGGGLVQAGGSLRLSCAASGLTFPRNTMGWYRQAPGKERELVAVISSSGGITYYADSVKGRFTISRDNAKNTVYLQMNSLKPEDTAVYYCAARTRVPRMGYWGQGTQVTVSS”: the “polyreactivity (PSR sort gate)” value is “high polyreactivity”.

In the case of “QVQLVESGGGLVQAGGSLRLSCAASGLTFPSNAMGWYRQAPGKERELVAAITSVGITYYADSVKGRFTISRDNAKNTVYLQMNSLKPEDTAVYYCNAPPGGGWYARDDNWGQGTQVTVSS”, the “polyreactivity (PSR sort gate)” value is given as “low polyreactivity”. “QVQLVESGGGLVQAGGSLRLSCAASGLTFPWYAMGWYRQAPGKERELVASINSSTGSTYYADSVKGRFTISRDNAKNTVYLQMNSLKPEDTAVYYCAAVEYGNMDWGQGTQVTVSS”: the “polyreactivity (PSR sort gate)” value was “low polyreactivity”. Under “QVQLVESGGGLVQAGGSLRLSCAASGLTFPYYAMGWYRQAPGKERELVAAISNSGGSTYYADSVKGRFTISRDNAKNTVYLQMNIVKPEDTAVYYCAAYNSYSDYGYWGHGTQVTVSS” stands “high polyreactivity”.

Consider “QVQLVESGGGLVQAGGSLRLSCAASGLTFPYYVMGWYRQAPGKERELVAAISSSGGSTYYADSVKGRFTISRDNAKNTVYLQMNSLKPEDTAVYYCNALGHFSKIATYDYWGQGTQVTVSS”, for which the “polyreactivity (PSR sort gate)” value was “low polyreactivity”.

Regarding “QVQLVESGGGLVQAGGSLRLSCAASGLTFQWNAMGWYRQAPGKERELVAGITDIGDSTYYADSVKGRFTISRDNAKNTVYFQMNSLKPEDTAVYYCNATSGYKHAWRSENGYWGQGTQVTVSS”, the “polyreactivity (PSR sort gate)” value was “low polyreactivity”.
